Patent publication US20230295275A1 (FLAGSHIP PIONEERING INNOVATIONS VI, published 2023)
Positions count from the first letter of the chain named.

B1: AB-1 full-length IgG1 (antibody, V domains shown)
VH: QMQLVQSGTEVKKPGESLKISCKGSGYGFITVWIGWVRQMPGKGLEWMGIIYPGDSETRYSPSFQGQVTISADKSINTAYLQWSSLKASDTAIYYCAGGSGISTPMDVWGQGTTVTVSS
VL: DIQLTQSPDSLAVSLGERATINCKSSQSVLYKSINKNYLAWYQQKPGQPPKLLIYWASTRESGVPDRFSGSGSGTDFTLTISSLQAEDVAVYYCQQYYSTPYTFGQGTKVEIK
B2: AB-6 full-length IgG1 (antibody, V domains shown)
VH: B1 VH with Y27S, F29L, S103Y
VL: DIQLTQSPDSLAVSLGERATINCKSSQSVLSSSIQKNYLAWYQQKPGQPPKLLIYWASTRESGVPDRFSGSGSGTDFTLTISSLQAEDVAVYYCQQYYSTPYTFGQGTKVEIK
B3: AB-5 full-length IgG1 (antibody, V domains shown)
VH: B1 VH with Y27S, V32Y, S103Y
VL: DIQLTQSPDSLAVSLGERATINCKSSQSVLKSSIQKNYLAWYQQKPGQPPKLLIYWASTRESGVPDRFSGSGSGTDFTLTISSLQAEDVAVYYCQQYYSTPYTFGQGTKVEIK
B4: AB-7 full-length IgG1 (antibody, V domains shown)
VH: B1 VH with Y27S, V32Y, S103Y
VL: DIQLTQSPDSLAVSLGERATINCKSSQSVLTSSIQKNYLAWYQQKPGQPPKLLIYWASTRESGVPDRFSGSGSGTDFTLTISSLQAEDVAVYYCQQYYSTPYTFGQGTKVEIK
B5: AB-3 full-length IgG1 (antibody, V domains shown)
VH: B1 VH with Y27S
VL: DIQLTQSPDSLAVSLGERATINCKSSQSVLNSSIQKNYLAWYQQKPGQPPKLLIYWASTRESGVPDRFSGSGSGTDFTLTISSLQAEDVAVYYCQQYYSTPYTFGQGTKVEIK
B6: AB-12 IgG1 (antibody, V domains shown)
VH: B1 VH with Q1E, M2V, T9A, Y27S, G35S, N77S, I93M
VL: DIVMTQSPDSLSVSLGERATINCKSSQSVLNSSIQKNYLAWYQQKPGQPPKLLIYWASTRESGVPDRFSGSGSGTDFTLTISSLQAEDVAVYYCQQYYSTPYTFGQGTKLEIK
B7: AB-11 IgG1 (antibody, V domains shown)
VH: B1 VH with Q1E, M2V, T9A, Y27S, Q65E, N77S, I93M
VL: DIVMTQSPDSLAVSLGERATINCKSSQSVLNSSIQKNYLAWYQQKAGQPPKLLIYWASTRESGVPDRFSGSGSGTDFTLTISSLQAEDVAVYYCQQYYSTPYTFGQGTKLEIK
B8: AB-8 IgG1 (antibody, V domains shown)
VH: B1 VH with Q1E, M2V, T9A, Y27S, S61N, P62Q, Q65K, N77S, I93M, T114M
VL: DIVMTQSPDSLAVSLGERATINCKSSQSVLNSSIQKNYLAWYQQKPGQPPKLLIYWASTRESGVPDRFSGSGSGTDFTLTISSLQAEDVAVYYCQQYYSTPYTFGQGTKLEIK
B9: AB-10 IgG1 (antibody, V domains shown)
VH: B1 VH with Q1E, M2V, T9A, E16G, Y27S, N77S, I93M
VL: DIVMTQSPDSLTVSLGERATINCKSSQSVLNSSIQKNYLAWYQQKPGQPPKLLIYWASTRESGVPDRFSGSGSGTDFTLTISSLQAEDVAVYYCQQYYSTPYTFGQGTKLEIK
B10: AB-9 IgG1 (antibody, V domains shown)
VH: B1 VH with Q1E, M2V, T9A, K23Q, Y27S, N77S, I93M
VL: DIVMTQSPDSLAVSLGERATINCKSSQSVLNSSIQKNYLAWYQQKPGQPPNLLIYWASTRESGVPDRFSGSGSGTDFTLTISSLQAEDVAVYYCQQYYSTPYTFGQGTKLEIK
B11: AB-13 IgG1 (antibody, V domains shown)
VH: B1 VH with Q1E, M2V, T9A, Y27S, I70L, N77S, I93M, Q111K
VL: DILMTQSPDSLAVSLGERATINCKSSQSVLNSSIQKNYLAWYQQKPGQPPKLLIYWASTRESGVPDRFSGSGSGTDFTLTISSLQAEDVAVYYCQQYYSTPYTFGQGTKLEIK
B12: AB-2 full-length IgG1 (antibody, V domains shown)
VH: B1 VH with Y27S, F29T
VL: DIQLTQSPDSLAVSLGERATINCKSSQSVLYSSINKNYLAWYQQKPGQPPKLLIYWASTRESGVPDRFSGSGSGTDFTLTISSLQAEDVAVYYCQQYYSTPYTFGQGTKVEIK
B13: AB-4 full-length IgG1 (antibody, V domains shown)
VH: B1 VH with Y27S, V32Y, S103H
VL: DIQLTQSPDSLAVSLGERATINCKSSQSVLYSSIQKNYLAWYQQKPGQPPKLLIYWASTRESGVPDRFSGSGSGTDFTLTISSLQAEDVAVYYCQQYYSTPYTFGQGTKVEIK

target: T1, SARS-CoV-2 receptor binding domain (RBD) (SARS-CoV-2, UniProt P0DTC2 319-527); experiment: BLI (Octet Red96e), IgG1 on AHC biosensors, RBD in solution

First: B1
Second: B2
The Kd of the first is 3.4-fold higher: 3.3 nM for the first, 0.96 nM for the second. The second binds more tightly here.

Compared with B3, B4 is 5-fold higher in Kd: 0.3 nM for the first, 1.5 nM for the second. The first binds more tightly here.

B5 showed a Kd of 4.5 nM.

Compared with B1, B2 is lower in Req: 0.98 nm shift for the first, 0.48 nm shift for the second.

Compared with B3, B4 is lower in Req: 1.8 nm shift for the first, 0.55 nm shift for the second.

Work on B5 yielded a Req of 1.3 nm shift.

Compared with B1, B2 is lower in Response: 1.06 nm for the first, 0.485 nm for the second.

Compared with B3, B4 is lower in Response: 1.84 nm for the first, 0.591 nm for the second.

With B5 the Response was 1.42 nm.

B1 and B2 are within 1.5-fold of each other in kobs: 0.023 s⁻¹ for the first, 0.031 s⁻¹ for the second.

Compared with B3, B4 is 2-fold higher in kobs: 0.012 s⁻¹ for the first, 0.024 s⁻¹ for the second.

Binder B5 has a kobs of 0.022 s⁻¹.

Going from B1 to B2, the koff falls from 0.00074 s⁻¹ to 0.00029 s⁻¹ (2.6-fold).

Compared with B3, B4 is 10-fold higher in koff: 3.6e-05 s⁻¹ for the first, 0.00036 s⁻¹ for the second.

In the case of B5, the koff is reported as 0.00096 s⁻¹.

B1 and B2 are within 1.5-fold of each other in kon: 220000 M⁻¹ s⁻¹ for the first, 300000 M⁻¹ s⁻¹ for the second.

Compared with B3, B4 is 1.9-fold higher in kon: 120000 M⁻¹ s⁻¹ for the first, 230000 M⁻¹ s⁻¹ for the second.

Binder B5 has a kon of 210000 M⁻¹ s⁻¹.

target: T1, SARS-CoV-2 receptor binding domain (RBD); experiment: BLI (Octet Red96e), IgG on AHC biosensors, RBD in solution

Work on B1 yielded a Kd of 9.5 nM.

Binder B1 has a koff of 0.0091 s⁻¹.

B1 was tested, and the kon was 960000 M⁻¹ s⁻¹.

target: T1, SARS-CoV-2 receptor binding domain (RBD); experiment: DELFIA, RBD coated on plate, IgG1 in solution

B6: binds.
B7: binds.
B8: binds.
B9: binds.
B10: binds.
B11: binds.

target: T1, SARS-CoV-2 receptor binding domain (RBD); experiment: BLI (Octet), IgG on anti-human Fc biosensors, RBD in solution

With B1 the Kd was 9.5 nM.

target: SARS-CoV-2-Spike (wildtype, on virus) (SARS-CoV-2, UniProt P0DTC2 14-1273); experiment: cell-based or functional assay

Compared with B1, B12 is 1.8-fold higher in “Neutralization (ng/mL), Authentic Virus IC50” value: 14200 ng/mL for the first, 25000 ng/mL for the second.

With B5 the “Neutralization (ng/mL), Authentic Virus IC50” value was 25000 ng/mL.

B1 and B12 are the same in “Neutralization (ng/mL), Authentic Virus IC80” value: 25000 ng/mL for the first, 25000 ng/mL for the second.

With B5 the “Neutralization (ng/mL), Authentic Virus IC80” value was 25000 ng/mL.

Going from B1 to B12, the “Neutralization (ng/mL), Pseudovirus IC50” value rises from 142 ng/mL to 324 ng/mL (2.3-fold).

B13 was tested, and the “Neutralization (ng/mL), Pseudovirus IC50” value was 86.5 ng/mL.

target: T1, SARS-CoV-2 receptor binding domain (RBD); experiment: not given

First: B1
Second: B12
The Kd of the first is 5.8-fold lower: 14.6 nM for the first, 84.9 nM for the second. The first binds more tightly here.

B13 and B5 are within 1.5-fold of each other in Kd: 36.1 nM for the first, 38.8 nM for the second.
